The RNAGym collection of RNA variant scans (doi:10.1101/gr.219683.116)

B1: mRNA-splicing (parent)
chain: AGUUGCUGCUGGGAGCUCCAGCACAGUGAAAUGGACAGAAGGGCAGAGCAA

Variants of: B1
Experiment: exon inclusion enrichment index; higher = more inclusion; WT1 exon 5 minigene, HEK293

Variant	exon inclusion enrichment index
G5A C6G U7G C9A A23U C24A	0.000776
G5A C6G U7G C9A A23U C24U	0.000744
G5A C6G U7G C9A G38U A39C	0.000723
G5A C6G U7G C9A G38U A39U	0.000926
G5A C6G U7G C9A G38U A39G	0.00105
G5A C6G U7G C9A G13U A14U	0.000524
G5A C6G U7G C9A G13U A14G	0.00052
G5A C6G U7G C9A G13U A14C	0.00403
G5A C6G U7G C9A A39U	0.000789
G5A C6G U7G C9A A39G	0.00219
G5A C6G U7G C9A A39C	0.00101
G5A C6G U7G C9A C22U	0.000826
G5A C6G U7G C9A C22A	0.00351
G5A C6G U7G C9A C22G	0.00114
G5A C6G U7G C9A A30U	0.00076
G5A C6G U7G C9A A30C	0.00196
G5A C6G U7G C9A A30G	0.00525
G5A C6G U7G C9A G21A	0.00299
G5A C6G U7G C9A G21U	0.00149
G5A C6G U7G C9A G21C	0.00079
G5A C6G U7G C9A A37G G38A	0.0012
G5A C6G U7G C9A A37G G38C	0.00203
G5A C6G U7G C9A A37G G38U	0.000981
G5A C6G U7G C9A C19U A20U	0.00173

Variant	exon inclusion enrichment index
G5A C6G U7G C9A C19U A20C	0.00291
G5A C6G U7G C9A C19U A20G	0.00155
G5A C6G U7G C9A C16G	0.00149
G5A C6G U7G C9A C16A	0.00192
G5A C6G U7G C9A C16U	0.000705
G5A C6G U7G C9A G12A G13U	0.00417
G5A C6G U7G C9A G12A G13A	0.00149
G5A C6G U7G C9A G12A G13C	0.0057
G5A C6G U7G C9A A47G	0.00123
G5A C6G U7G C9A A47U	0.00119
G5A C6G U7G C9A A47C	0.0181
G5A C6G U7G C9A A29G A30U	0.000871
G5A C6G U7G C9A A29G A30G	0.00214
G5A C6G U7G C9A A29G A30C	0.000858
G5A C6G U7G C9A G13A A14G	0.00529
G5A C6G U7G C9A G13A A14U	0.0021
G5A C6G U7G C9A G13A A14C	0.0219
G5A C6G U7G C9A A31U U32A	0.000867
G5A C6G U7G C9A A31U U32C	0.00119
G5A C6G U7G C9A A31U U32G	0.0027
G5A C6G U7G C9A A37G	0.00135
G5A C6G U7G C9A A37C	0.00434
G5A C6G U7G C9A A37U	0.00604
G5A C6G U7G C9A G34U A35C	0.000948

Variant	exon inclusion enrichment index
G5A C6G U7G C9A G34U A35G	0.00131
G5A C6G U7G C9A G34U A35U	0.00101
G5A C6G U7G C9A G33A G34U	0.000917
G5A C6G U7G C9A G33A G34A	0.000844
G5A C6G U7G C9A G33A G34C	0.000823
G5A C6G U7G C9A G33U G34A	0.000839
G5A C6G U7G C9A G33U G34U	0.000939
G5A C6G U7G C9A G33U G34C	0.00131
G5A C6G U7G C9A C16U U17G	0.0132
G5A C6G U7G C9A C16U U17C	0.000766
G5A C6G U7G C9A C16U U17A	0.00236
G5A C6G U7G C9A A25C G26U	0.00184
G5A C6G U7G C9A A25C G26A	0.00349
G5A C6G U7G C9A A25C G26C	0.00427
G5A C6G U7G C9A C22A A23G	0.000928
G5A C6G U7G C9A C22A A23C	0.0031
G5A C6G U7G C9A C22A A23U	0.00131
G5A C6G U7G C9A C44U A45C	0.00286
G5A C6G U7G C9A C44U A45G	0.00135
G5A C6G U7G C9A C44U A45U	0.000761
G5A C6G U7G C9A C44A	0.00167
G5A C6G U7G C9A C44U	0.000609
G5A C6G U7G C9A C44G	0.00206
G5A C6G U7G C9A G15A C16U	0.000755

Variant	exon inclusion enrichment index
G5A C6G U7G C9A G15A C16A	0.000736
G5A C6G U7G C9A G15A C16G	0.00097
G5A C6G U7G C9A G41C	0.013
G5A C6G U7G C9A G41A	0.0013
G5A C6G U7G C9A A30G A31C	0.00143
G5A C6G U7G C9A A30G A31G	0.00115
G5A C6G U7G C9A A30G A31U	0.000963
G5A C6G U7G C9A G11C G12C	0.00959
G5A C6G U7G C9A G11C G12U	0.00113
G5A C6G U7G C9A G11C G12A	0.000679
G5A C6G U7G C9A G21A C22A	0.000944
G5A C6G U7G C9A G21A C22U	0.00087
G5A C6G U7G C9A G21A C22G	0.00502
G5A C6G U7G C9A A23U	0.0012
G5A C6G U7G C9A C18G	0.00165
G5A C6G U7G C9A C18U	0.000744
G5A C6G U7G C9A C18A	0.000986
G5A C6G U7G C9A A30C A31C	0.00182
G5A C6G U7G C9A A30C A31U	0.00118
G5A C6G U7G C9A A30C A31G	0.00621
G5A C6G U7G C9A G13C A14C	0.00967
G5A C6G U7G C9A G13C A14G	0.00374
G5A C6G U7G C9A G13C A14U	0.0025
G5A C6G U7G C9A A35U C36U	0.000752

Variant	exon inclusion enrichment index
G5A C6G U7G C9A A35U C36G	0.00119
G5A C6G U7G C9A A35U C36A	0.001
G5A C6G U7G C9A G26C	0.00298
G5A C6G U7G C9A G26A	0.00477
G5A C6G U7G C9A G26U	0.00112
G5A C6G U7G C9A G33C	0.00196
G5A C6G U7G C9A G33U	0.000815
G5A C6G U7G C9A G33A	0.000879
G5A C6G U7G C9A G28A A29G	0.000786
G5A C6G U7G C9A G28A A29C	0.00171
G5A C6G U7G C9A G28A A29U	0.000814
G5A C6G U7G C9A G12C G13A	0.00586
G5A C6G U7G C9A G12C G13U	0.000686
G5A C6G U7G C9A G12C G13C	0.00164
G5A C6G U7G C9A G26A U27C	0.0139
G5A C6G U7G C9A G26A U27A	0.00661
G5A C6G U7G C9A G26A U27G	0.00208
G5A C6G U7G C9A G15U C16G	0.00106
G5A C6G U7G C9A G15U C16A	0.00611
G5A C6G U7G C9A G15U C16U	0.000743
G5A C6G U7G C9A A40G	0.00228
G5A C6G U7G C9A A40U	0.00193
G5A C6G U7G C9A A40C	0.00374
G5A C6G U7G C9A G26C U27G	0.0205

Variant	exon inclusion enrichment index
G5A C6G U7G C9A G26C U27C	0.0114
G5A C6G U7G C9A G26C U27A	0.00255
G5A C6G U7G C9A A25U	0.00086
G5A C6G U7G C9A A25C	0.0135
G5A C6G U7G C9A A25G	0.0133
G5A C6G U7G C9A C24U	0.00094
G5A C6G U7G C9A C24G	0.00883
G5A C6G U7G C9A C24A	0.00195
G5A C6G U7G C9A G13U	0.000555
G5A C6G U7G C9A G13C	0.00103
G5A C6G U7G C9A G13A	0.0025
G5A C6G U7G C9A A37U G38A	0.00155
G5A C6G U7G C9A A37U G38C	0.00236
G5A C6G U7G C9A A37U G38U	0.00105
G5A C6G U7G C9A G11U G12A	0.00148
G5A C6G U7G C9A G11U G12C	0.00339
G5A C6G U7G C9A G11U G12U	0.000733
G5A C6G U7G C9A C22G A23U	0.000928
G5A C6G U7G C9A C22G A23G	0.00134
G5A C6G U7G C9A C22G A23C	0.000809
G5A C6G U7G C9A G11A G12A	0.00145
G5A C6G U7G C9A G11A G12U	0.000779
G5A C6G U7G C9A G11A G12C	0.00102
G5A C6G U7G C9A C44G A45U	0.00421

Variant	exon inclusion enrichment index
G5A C6G U7G C9A C44G A45G	0.00929
G5A C6G U7G C9A C44G A45C	0.00471
G5A C6G U7G C9A G11U	0.00542
G5A C6G U7G C9A G11C	0.00307
G5A C6G U7G C9A G11A	0.000945
G5A C6G U7G C9A G34A A35U	0.00125
G5A C6G U7G C9A G34A A35C	0.00134
G5A C6G U7G C9A G34A A35G	0.00114
G5A C6G U7G C9A C36G A37U	0.00107
G5A C6G U7G C9A C36G A37G	0.00376
G5A C6G U7G C9A C36G A37C	0.00103
G5A C6G U7G C9A A40C G41A	0.00061
G5A C6G U7G C9A A40C G41U	0.00114
G5A C6G U7G C9A A40C G41C	0.0197
G5A C6G U7G C9A A40G G41U	0.00052
G5A C6G U7G C9A A40G G41C	0.0252
G5A C6G U7G C9A A40G G41A	0.0007
G5A C6G U7G C9A C19G A20U	0.00167
G5A C6G U7G C9A C19G A20C	0.00232
G5A C6G U7G C9A C19G A20G	0.00172
G5A C6G U7G C9A C44A A45U	0.0154
G5A C6G U7G C9A C44A A45C	0.00399
G5A C6G U7G C9A C44A A45G	0.0102
